In patent publication US20250333474A1 one finds saturate peptide concentration data, which are given here for one molecule.

The assay deals with T1, H-2K^b of MHC class I of MutuDC1940 cells (without loaded OVA^257-264 peptide) (mouse).
T1 chain 1: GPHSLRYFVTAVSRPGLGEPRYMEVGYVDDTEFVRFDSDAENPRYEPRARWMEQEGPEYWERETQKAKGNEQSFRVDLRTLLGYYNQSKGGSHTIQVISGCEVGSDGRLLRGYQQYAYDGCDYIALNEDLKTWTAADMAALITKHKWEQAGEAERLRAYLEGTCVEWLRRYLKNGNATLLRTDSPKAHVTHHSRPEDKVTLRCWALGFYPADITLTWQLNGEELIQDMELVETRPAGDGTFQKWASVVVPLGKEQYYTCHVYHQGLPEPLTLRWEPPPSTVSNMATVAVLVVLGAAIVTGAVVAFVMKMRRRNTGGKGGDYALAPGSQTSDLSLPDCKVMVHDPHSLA
T1 chain 2: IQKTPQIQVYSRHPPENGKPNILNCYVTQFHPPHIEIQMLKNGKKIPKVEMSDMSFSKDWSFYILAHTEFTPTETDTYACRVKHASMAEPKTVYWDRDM
Description: peptide loading on MutuDC1940 cells for 24 h, read by 25D1.16 staining and flow cytometry. Conditions: remark: other sources report otherwise.

B1: OVA^257-264 antigen peptide (peptide)
peptide: SIINFEKL
Regarding B1, the saturate peptide concentration was found to be 2 µg/mL.
